Measurements from article PMC3830444 (BMC Biochemistry, 2013).
Ends that are not written are not given here.

Target: human α-thrombin (human, UniProt P00734 364-622)
Assay: ELISA
Conditions: both partners purified

| Binder | IC50 [nM] |
| --- | --- |
| Ac-GDFEPIPEDAYDE [H6HV3_(54-66) synthetic peptide] | 740 |
| Ac-GDFEPIPEDAYDE (not fully specified (C-terminus)) [H6HV3_(54-66)G6 synthetic peptide] | 1400 |
